{"source": "patent US7629440", "biological_target": "murine GM-CSF receptor (murine) (UniProt Q00941)", "sequence (Q00941 30-388, chain 1 of 2)": "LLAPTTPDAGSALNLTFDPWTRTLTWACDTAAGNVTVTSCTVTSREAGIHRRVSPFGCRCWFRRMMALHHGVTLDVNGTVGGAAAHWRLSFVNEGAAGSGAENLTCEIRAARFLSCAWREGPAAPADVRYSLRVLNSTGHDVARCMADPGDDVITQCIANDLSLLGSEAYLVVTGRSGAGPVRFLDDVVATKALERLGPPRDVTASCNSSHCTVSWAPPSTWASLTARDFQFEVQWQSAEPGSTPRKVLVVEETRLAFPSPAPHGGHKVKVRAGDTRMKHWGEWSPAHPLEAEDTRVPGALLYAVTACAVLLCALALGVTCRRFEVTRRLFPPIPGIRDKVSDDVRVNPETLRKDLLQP", "sequence (P26955 23-896, chain 2 of 2, further chain)": "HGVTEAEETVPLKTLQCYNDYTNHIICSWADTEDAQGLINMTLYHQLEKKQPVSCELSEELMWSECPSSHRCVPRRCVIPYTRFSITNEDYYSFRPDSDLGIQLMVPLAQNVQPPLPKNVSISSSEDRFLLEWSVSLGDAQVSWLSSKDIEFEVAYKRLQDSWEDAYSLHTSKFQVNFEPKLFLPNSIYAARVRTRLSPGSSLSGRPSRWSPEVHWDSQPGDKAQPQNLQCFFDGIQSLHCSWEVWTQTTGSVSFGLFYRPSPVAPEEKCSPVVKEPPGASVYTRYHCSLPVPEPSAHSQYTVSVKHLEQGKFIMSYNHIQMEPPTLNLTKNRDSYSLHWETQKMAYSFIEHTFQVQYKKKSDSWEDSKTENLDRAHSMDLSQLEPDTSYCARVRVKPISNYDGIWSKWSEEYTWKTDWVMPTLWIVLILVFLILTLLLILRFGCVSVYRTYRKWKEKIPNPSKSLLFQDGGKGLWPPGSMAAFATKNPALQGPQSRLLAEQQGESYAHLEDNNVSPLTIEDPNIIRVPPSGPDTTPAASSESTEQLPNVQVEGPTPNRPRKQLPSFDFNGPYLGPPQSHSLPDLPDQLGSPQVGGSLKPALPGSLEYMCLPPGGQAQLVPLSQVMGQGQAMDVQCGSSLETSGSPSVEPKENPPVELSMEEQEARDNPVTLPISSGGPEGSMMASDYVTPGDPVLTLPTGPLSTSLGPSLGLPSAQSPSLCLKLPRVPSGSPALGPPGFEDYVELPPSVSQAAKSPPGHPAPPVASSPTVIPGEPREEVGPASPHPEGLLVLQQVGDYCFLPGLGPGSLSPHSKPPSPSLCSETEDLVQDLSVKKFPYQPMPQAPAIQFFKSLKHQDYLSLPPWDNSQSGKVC", "experiment": "cell-based or functional assay", "data": [{"substance": "murine GM-CSF fused to the S. cerevisiae Gas1 GPI modification signal sequence (GPI-GM-CSF) (from UniProt P01587 18-141; P22146 470-528) (other; the values are: proliferation increase vs soluble GM-CSF)", "values": [{"measurement": "proliferation of the GM-CSF dependent FDC-P1 cell line (Biotrak BrdU cell proliferation ELISA), 10 ng per well", "result": 25, "unit": "%"}]}]}
